# From paper doi:10.1101/2025.07.31.667873 (bioRxiv, 2025)
# B1: TAF6L (natural protein)
# chain: MSEREERRFVEIPRESVRLMAESTGLELSDEVAALLAEDVCYRLREATQNSSQFMKHTKRRKLTVEDFNRALRWSSVEAVCGYGSQEALPMRPAREGELYFPEDREVNLVELALATNIPKGCAETAVRVHVSYLDGKGNLAPQGSVPSAVSSLTDDLLKYYHQVTRAVLGDDPQLMKVALQDLQTNSKIGALLPYFVYVVSGVKSVSHDLEQLHRLLQVARSLFRNPHLCLGPYVRCLVGSVLYCVLEPLAASINPLNDHWTLRDGAALLLSHIFWTHGDLVSGLYQHILLSLQKILADPVRPLCCHYGAVVGLHALGWKAVERVLYPHLSTYWTNLQAVLDDYSVSNAQVKADGHKVYGAILVAVERLLKMKAQAAEPNRGGPGGRGCRRLDDLPWDSLLFQESSSGGGAEPSFGSGLPLPPGGAGPEDPSLSVTLADIYRELYAFFGDSLATRFGTGQPAPTAPRPPGDKKEPAAAPDSVRKMPQLTASAIVSPHGDESPRGSGGGGPASASGPAASESRPLPRVHRARGAPRQQGPGTGTRDVFQKSRFAPRGAPHFRFIIAGRQAGRRCRGRLFQTAFPAPYGPSPASRYVQKLPMIGRTSRPARRWALSDYSLYLPL
# Biological target: SF3B5 (human (endogenous in K562), UniProt Q9BWJ5 1-86)
# Assay: cryo-EM structure
binder,measurement,value
B1,binding result,binds
